# Experimental data from patent publication US8461305B2, “L-fucose α1→6 specific lectin” (J-Oil Mills, Inc., priority 2008, dated 2013).
# T1: Invertase (yeast) (yeast, UniProt P00724 20-532, high mannose-type sugar chains)
# T1 sequence (looked up): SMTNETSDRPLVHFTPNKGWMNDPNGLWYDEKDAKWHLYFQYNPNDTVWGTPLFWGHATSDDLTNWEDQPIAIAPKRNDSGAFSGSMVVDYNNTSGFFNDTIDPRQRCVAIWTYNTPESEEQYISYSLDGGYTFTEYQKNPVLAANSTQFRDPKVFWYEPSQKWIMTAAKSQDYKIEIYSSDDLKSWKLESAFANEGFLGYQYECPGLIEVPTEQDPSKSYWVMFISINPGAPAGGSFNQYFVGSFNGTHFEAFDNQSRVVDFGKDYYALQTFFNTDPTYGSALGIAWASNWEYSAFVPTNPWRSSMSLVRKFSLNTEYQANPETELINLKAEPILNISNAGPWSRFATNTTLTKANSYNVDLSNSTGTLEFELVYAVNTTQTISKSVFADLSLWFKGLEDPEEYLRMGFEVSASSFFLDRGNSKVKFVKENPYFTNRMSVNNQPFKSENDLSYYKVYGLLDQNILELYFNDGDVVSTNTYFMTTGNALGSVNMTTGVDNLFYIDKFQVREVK
# B1: Lens culinaris agglutinin (LCA) of Comparison Example 3 (other)
# chain 1: TETTSFSITKFSPDQKNLIFQGDGYTTKGKLTLTKAVKSTVGRALYSTPIHIWDRDTGNVANFVTSFTFVIDAPSSYNVADEFTFFIAPVDTKPQTGGGYLGVFNSKEYDKTSQTVAVEFDTFYNAAWDPSNKERHIGIDVNSIKSVNTKSWNLQNGERANVVIAFNAATNVLTVTLTYP
# chain 2: VTSYTLNEVVPLKDVVPEWVRIGFSATTGAEFAAHEVHSWSFHSELGGTSSS
# modifications: biotin-labeled in the Western blotting and ELISA experiments
# notes: Bought lectin
# B2: Aleuria aurantia lectin (AAL) of Comparison Example 1 (other, UniProt P18891 2-313, looked up)
# chain: PTEFLYTSKIAAISWAATGGRQQRVYFQDLNGKIREAQRGGDNPWTGGSSQNVIGEAKLFSPLAAVTWKSAQGIQIRVYCVNKDNILSEFVYDGSKWITGQLGSVGVKVGSNSKLAALQWGGSESAPPNIRVYYQKSNGSGSSIHEYVWSGKWTAGASFGSTVPGTGIGATAIGPGRLRIYYQATDNKIREHCWDSNSWYVGGFSASASAGVSIAAISWGSTPNIRVYWQKGREELYEAAYGGSWNTPGQIKDASRPTPSLPDTFIAANSSGNIDISVFFQASGVSLQQWQWISGKGWSIGAVVPTGTPAGW
# modifications: biotin-labeled in the Western blotting and ELISA experiments
# notes: Bought lectin
# What was measured:
# [1] = target: α-fetoprotein-L3 (prepared from the culture supernatant of human liver cancer cells) (human) (UniProt P02771); experiment: ELISA, α-fetoprotein-L3 coated at 0.01 µg/ml, biotin-labeled lectin
# Sequence of α-fetoprotein-L3 (prepared from the culture supernatant of human liver cancer cells) (human) (P02771 19-609 limits assumed): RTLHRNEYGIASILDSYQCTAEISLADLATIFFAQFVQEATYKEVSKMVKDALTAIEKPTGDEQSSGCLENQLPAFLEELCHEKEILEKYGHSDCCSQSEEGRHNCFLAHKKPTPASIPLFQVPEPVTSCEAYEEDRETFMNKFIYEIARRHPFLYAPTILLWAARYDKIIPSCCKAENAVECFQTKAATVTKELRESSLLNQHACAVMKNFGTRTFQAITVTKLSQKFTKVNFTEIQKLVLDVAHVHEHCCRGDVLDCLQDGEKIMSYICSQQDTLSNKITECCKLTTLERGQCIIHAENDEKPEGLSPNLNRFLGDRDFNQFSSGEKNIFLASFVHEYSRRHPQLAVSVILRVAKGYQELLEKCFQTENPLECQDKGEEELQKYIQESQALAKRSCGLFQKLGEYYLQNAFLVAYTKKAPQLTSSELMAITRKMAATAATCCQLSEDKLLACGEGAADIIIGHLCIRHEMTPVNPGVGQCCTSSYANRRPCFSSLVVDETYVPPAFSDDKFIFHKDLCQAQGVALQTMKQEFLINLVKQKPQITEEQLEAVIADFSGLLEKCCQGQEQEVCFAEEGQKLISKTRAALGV
# [2] = target: Lens culinaris agglutinin (LCA) of Comparison Example 3 (Lens culinaris) (UniProt P02870); experiment: hemagglutination inhibition; glycoprotein titrated against lectin at titer 4
# [3] = target: Aleuria aurantia lectin (AAL) of Comparison Example 1 (Aleuria aurantia) (UniProt P18891); experiment: as above
# [4] = target: Aspergillus oryzae lectin (AOL) of Comparison Example 2 (Aspergillus oryzae); experiment: as above
# Sequence of Aspergillus oryzae lectin (AOL) of Comparison Example 2 (Aspergillus oryzae) (Q8TGE0 whole entry): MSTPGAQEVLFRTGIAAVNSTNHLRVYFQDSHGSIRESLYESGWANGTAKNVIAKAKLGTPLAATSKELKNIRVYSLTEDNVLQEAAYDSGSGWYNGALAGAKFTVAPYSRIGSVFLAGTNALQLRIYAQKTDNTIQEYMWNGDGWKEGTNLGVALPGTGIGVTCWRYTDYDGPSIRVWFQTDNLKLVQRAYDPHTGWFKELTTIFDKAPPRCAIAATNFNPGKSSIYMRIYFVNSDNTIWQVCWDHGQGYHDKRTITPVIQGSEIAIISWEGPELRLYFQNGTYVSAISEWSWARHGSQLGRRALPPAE
# [5] = target: α-fetoprotein (derived from human umbilical cord blood serum, mainly L1-type sugar chain) (human) (UniProt P02771); experiment: ELISA, α-fetoprotein coated at 0.01 µg/ml, biotin-labeled lectin
# Sequence of α-fetoprotein (derived from human umbilical cord blood serum, mainly L1-type sugar chain) (human) (P02771 19-609 limits assumed): as the sequence (P02771 19-609 limits assumed) above
# [6] = target: Pholiota terrestris lectin (PTL) of Example 1 (Pholiota terrestris); experiment: hemagglutination inhibition; glycoprotein titrated against lectin at titer 4
# [7] = target: Pisum sativum agglutinin (PSA) of Comparison Example 4 (Pisum sativum) (UniProt P02867); experiment: as above
# Sequence of Pisum sativum agglutinin (PSA) of Comparison Example 4 (Pisum sativum) (P02867 31-275 limits assumed): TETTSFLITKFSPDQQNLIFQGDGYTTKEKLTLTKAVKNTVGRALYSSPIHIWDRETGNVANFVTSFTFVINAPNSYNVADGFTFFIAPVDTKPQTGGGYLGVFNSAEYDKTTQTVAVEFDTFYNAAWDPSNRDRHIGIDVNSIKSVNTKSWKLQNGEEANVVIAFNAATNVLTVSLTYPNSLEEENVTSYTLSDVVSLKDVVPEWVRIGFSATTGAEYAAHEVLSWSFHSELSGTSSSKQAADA
# [8] = target: Stropharia rugosoannulata lectin (SRL) of Example 2 (Stropharia rugosoannulata); experiment: as above
# Transferrin (human) = Transferrin (human) (human, UniProt P02787 20-698, N-linked glycans without L-fucose α1→6); experiment: Western blotting, glycoprotein on PVDF stained with biotin-labeled lectin
# Sequence of Transferrin (human) (P02787 20-698 limits assumed): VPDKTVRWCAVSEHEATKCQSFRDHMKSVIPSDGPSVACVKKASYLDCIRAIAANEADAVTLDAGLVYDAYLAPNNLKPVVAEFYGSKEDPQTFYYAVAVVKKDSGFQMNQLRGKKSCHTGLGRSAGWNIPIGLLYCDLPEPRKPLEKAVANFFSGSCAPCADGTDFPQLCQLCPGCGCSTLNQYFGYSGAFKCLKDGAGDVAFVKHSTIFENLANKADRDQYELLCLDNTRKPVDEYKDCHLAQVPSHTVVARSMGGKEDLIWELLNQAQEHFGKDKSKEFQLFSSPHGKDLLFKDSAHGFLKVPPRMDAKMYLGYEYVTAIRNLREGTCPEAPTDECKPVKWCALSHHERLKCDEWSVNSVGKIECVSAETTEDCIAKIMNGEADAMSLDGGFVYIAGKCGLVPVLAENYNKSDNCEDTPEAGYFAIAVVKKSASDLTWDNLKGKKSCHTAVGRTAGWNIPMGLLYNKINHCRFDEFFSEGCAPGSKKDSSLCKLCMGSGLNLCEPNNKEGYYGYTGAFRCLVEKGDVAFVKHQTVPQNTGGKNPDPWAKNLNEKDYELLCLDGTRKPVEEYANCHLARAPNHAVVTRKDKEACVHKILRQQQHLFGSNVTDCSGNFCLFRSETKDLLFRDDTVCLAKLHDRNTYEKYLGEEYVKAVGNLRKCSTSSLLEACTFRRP
# Method: (§1) The film was immersed in 10 mM Tris buffer solution including 0.8% NaCl added with 1% BSA (pH 7.4, 1% BSA+TBS) and was shaken at a room temperature for one hour. Then, the film was cleaned three times by 10 mM Tris buffer solution (pH 7.4, TBS) including 0.8% NaCl. Then, the film was immersed in biotin-labeled lectin solution (2 µg/ml) and was shaken at a room temperature for one hour. Then, the film was cleaned three times by TBS. Then, the film was immersed in the HRP label streptavidin solution at 1 µg/ml (Vector Laboratories) and was shaken at a room temperature for 30 minutes. After the film was cleaned three times by TBS, a POD immunostain set (Wako Pure Chemical Industries, Ltd.) was used to perform a staining test. The staining test is to detect glycoprotein by the western blotting using biotin-labeled lectin. FIG. 13 to FIG. 17 are photographs showing the following glycoproteins stained by PTL (FIG. 13), SRL (FIG. 14), AAL (FIG. 15), AOL (FIG. 16), or LCA (FIG. 17).
# Bovine serum albumin = target: T2, Bovine serum albumin (bovine, UniProt P02769 25-607); experiment: ELISA, glycoprotein coated, biotin-labeled lectin; relative value with thyroglobulin = 100%
# T2 construct: Control protein without a sugar chain; also called Bovine blood serum albumin; Blood serum albumin (bovine)
# T2 sequence (P02769 25-607 limits assumed): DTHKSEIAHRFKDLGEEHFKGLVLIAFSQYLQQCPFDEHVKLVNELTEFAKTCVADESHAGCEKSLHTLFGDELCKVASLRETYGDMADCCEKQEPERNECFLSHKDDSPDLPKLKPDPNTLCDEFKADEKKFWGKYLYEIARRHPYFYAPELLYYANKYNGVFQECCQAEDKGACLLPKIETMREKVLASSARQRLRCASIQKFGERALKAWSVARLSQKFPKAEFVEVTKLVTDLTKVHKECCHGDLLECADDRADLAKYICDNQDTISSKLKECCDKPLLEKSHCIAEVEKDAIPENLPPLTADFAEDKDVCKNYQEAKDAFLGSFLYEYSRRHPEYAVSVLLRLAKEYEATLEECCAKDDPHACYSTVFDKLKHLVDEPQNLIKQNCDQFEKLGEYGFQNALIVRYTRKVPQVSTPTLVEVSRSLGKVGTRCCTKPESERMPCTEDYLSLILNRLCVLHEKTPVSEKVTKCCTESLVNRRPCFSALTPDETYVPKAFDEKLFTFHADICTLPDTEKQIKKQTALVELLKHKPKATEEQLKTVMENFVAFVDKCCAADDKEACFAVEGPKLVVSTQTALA
# Method: (§2) The glycoprotein and albumin as protein not including a sugar chain as a control were dissolved in 0.1 M carbonic acid buffer solution (pH 9.5) at 1 mg/ml. Then, the resultant solution was added to a microtiter plate (Nunc 439454) and was incubated at 4 degrees C. overnight. Then, the resultant solution was cleaned by 0.05% Tween/PBS three times. Thereafter, 1% BSA/PBS was added to wells and the solution was incubated at 37 degrees C. for one hour. Then, after the solution was cleaned by 0.05% Tween/PBS three times, biotin labeled-lectin appropriately diluted by 1% BSA/0.05% Tween/PBS was added to the wells and the solution was incubated at 37 degrees C. for one hour. After the solution was cleaned by 0.05% Tween/PBS three times, HRP labeled streptavidin solution diluted by 1% BSA/0.05% Tween/PBS was added to wells and the solution was incubated at 37 degrees C. for 30 minutes. After the solution was cleaned by 0.05% Tween/PBS three times, TMB Peroxidase substrate system (KPL) was added and the resultant solution was incubated at a room temperature for 10 minutes while light was being blocked.
# (§3) The reaction was stopped by 1 M phosphoric acid. Then, a microplate reader (MPR-A4i, TOSOH CORPORATION) was used to measure the absorbance at 450 nm. Based on this value, reaction value ([absorbance at 450 nm of a well for which glycoprotein was solid-phased to the plate and
# (§4) […] reacted]−[absorbance at 450 nm of a well for which glycoprotein was not solid-phased to the plate and reacted] was calculated. Next, for each lectin, the interaction strength (relative value) to each glycoprotein was calculated based on an assumption that the glycoprotein (thyroglobulin) value was 100%. The calculation result is shown in Table 9 and FIG. 19 to FIG. 23.
# Lactoferrin (bovine) = Lactoferrin (bovine) (bovine, UniProt P24627 20-708, L-fucose α1→6 N-linked glycans); experiment: Western blotting, glycoprotein on PVDF stained with biotin-labeled lectin; ◯ = Detected
# Sequence of Lactoferrin (bovine) (P24627 20-708 limits assumed): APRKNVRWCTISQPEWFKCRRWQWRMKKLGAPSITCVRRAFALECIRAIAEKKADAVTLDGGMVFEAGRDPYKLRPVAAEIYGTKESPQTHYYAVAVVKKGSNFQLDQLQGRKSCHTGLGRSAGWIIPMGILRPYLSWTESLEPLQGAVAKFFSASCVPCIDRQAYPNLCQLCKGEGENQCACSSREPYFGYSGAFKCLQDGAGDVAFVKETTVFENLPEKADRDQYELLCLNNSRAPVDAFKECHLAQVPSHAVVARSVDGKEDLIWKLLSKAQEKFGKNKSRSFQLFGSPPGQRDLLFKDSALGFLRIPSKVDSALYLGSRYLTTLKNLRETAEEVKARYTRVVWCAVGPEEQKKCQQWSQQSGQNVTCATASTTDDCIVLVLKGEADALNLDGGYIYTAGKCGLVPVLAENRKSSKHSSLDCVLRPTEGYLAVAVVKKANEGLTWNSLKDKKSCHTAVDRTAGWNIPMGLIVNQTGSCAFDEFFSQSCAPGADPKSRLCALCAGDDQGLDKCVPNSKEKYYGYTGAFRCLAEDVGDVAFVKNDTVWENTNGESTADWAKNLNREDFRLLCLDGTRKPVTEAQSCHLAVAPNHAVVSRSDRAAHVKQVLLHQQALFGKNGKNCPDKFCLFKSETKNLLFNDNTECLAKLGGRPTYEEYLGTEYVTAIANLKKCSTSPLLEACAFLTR
# Method: as §1
# Invertase (yeast) = target: T1, Invertase (yeast); experiment: ELISA, glycoprotein coated, biotin-labeled lectin; relative value with thyroglobulin = 100%
# Method: as §2, §3, §4
# Thyroglobulin (pig) = Thyroglobulin (pig) (pig, UniProt F1RRV3 20-2692, L-fucose α1→6 N-linked glycans); experiment: ELISA, glycoprotein coated, biotin-labeled lectin; thyroglobulin set to 100%; ⊚ = relative values of 120 to 80
# Method: The glycoprotein and albumin as protein not including a sugar chain as a control were dissolved in 0.1 M carbonic acid buffer solution (pH 9.5) at 1 mg/ml. Then, the resultant solution was added to a microtiter plate (Nunc 439454) and was incubated at 4 degrees C. overnight. Then, the resultant solution was cleaned by 0.05% Tween/PBS three times. Thereafter, 1% BSA/PBS was added to wells and the solution was incubated at 37 degrees C. for one hour. Then, after the solution was cleaned by 0.05% Tween/PBS three times, biotin labeled-lectin appropriately diluted by 1% BSA/0.05% Tween/PBS was added to the wells and the solution was incubated at 37 degrees C. for one hour. […]
# as §3
# […] reacted]−[absorbance at 450 nm of a well for which glycoprotein was not solid-phased to the plate and reacted] was calculated. […]
molecule,measurement,setting,value
Aleuria aurantia lectin (AAL) of Comparison Example 1 (from UniProt P18891 2-313),"reaction value (absorbance at 450 nm, blank subtracted) (absorbance at 450 nm)",[1],0.795
Asialofetuin,minimum inhibition concentration,[2],250 µl/ml
Asialomucin (pig),minimum inhibition concentration,[3],31.3 µl/ml
same,minimum inhibition concentration,[4],62.5 µl/ml
Aspergillus oryzae lectin (AOL) of Comparison Example 2,"reaction value (absorbance at 450 nm, blank subtracted) (absorbance at 450 nm)",[5],0.011
same,"reaction value (absorbance at 450 nm, blank subtracted) (absorbance at 450 nm)",[1],0.898
Lens culinaris agglutinin (LCA) of Comparison Example 3 (from UniProt P02870 31-210; P02870 218-269),"reaction value (absorbance at 450 nm, blank subtracted) (absorbance at 450 nm)",[5],0.01
same,"reaction value (absorbance at 450 nm, blank subtracted) (absorbance at 450 nm)",[1],0.455
Mucin (pig),minimum inhibition concentration,[3],15.6 µl/ml
same,minimum inhibition concentration,[4],62.5 µl/ml
Pholiota terrestris lectin (PTL) of Example 1,"reaction value (absorbance at 450 nm, blank subtracted) (absorbance at 450 nm)",[1],1.55
Stropharia rugosoannulata lectin (SRL) of Example 2,"reaction value (absorbance at 450 nm, blank subtracted) (absorbance at 450 nm)",[5],0.031
same,"reaction value (absorbance at 450 nm, blank subtracted) (absorbance at 450 nm)",[1],1.62
"Thyroglobulin (Table 3 and affinity column, species not stated)",minimum inhibition concentration,[3],125 µl/ml
same,minimum inhibition concentration,[2],62.5 µl/ml
same,minimum inhibition concentration,[6],250 µl/ml
same,minimum inhibition concentration,[7],62.5 µl/ml
same,minimum inhibition concentration,[8],250 µl/ml
B1,binding result,Transferrin (human),no binding (tested: biotin-labeled lectin 2 µg/ml)
same,binding result,Bovine serum albumin,no binding (tested: relative value 10 or less)
B2,binding result,Transferrin (human),no binding (tested: biotin-labeled lectin 2 µg/ml)
same,binding result,Lactoferrin (bovine),binds
same,binding result,Invertase (yeast),no binding (tested: relative value 10 or less)
same,binding result,Bovine serum albumin,no binding (tested: relative value 10 or less)
same,binding result,Thyroglobulin (pig),binds
